The series is described as follows: yeast display, Sf9 membrane polyspecificity reagent, FACS + sequencing; frameworks hold sequencing errors. The gist of the method:
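After 36–48 hours of galactose induction, yeast (Saccharomyces cerevisiae BJ5465) displaying a synthetic nanobody library were stained at 4 °C for 1 hour with 10% biotinylated, detergent-solubilized Sf9 membrane reagent. Streptavidin microbeads enriched the stained cells before FACS sorting into low and high (top ~1%) gates on anti-HA and streptavidin fluorescence. Each clone's polyreactivity label reflects its gate of origin.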
Regarding “QVQLVESGGGLVQAGGSLRLSCAASGRTFRRNAMGWYRQAPGKERELVASITRNGGSTYYADSVKGRFTISRDNAKNTVYLQMNILKPEDTAVYYCYKTQPIDLYGYWGQGTQVTVSS”, the “polyreactivity (PSR sort gate)” value is “high polyreactivity”.

With “QVQLVESGGGLVQAGGSLRLSCAASGRTFRRNAMGWYRQAPGKERELVATISSSGGRTYYADSVKGRFTISRDNAKKTVYFQMNSLKPEDTAVYYCNKALRTYPLFYYWGQGTQVTVSS”, the “polyreactivity (PSR sort gate)” value is listed as “high polyreactivity”.

With “QVQLVESGGGLVQAGGSLRLSCAASGRTFRRNVMGWYRQAPGKERELVAAISSGANTNYADSVKGRFTISRDNAKNTVYLQMNSLKPEDTAVYYCNARWQEPLKYDYWGQGTQVTVSS”, the “polyreactivity (PSR sort gate)” value was “low polyreactivity”.

As for “QVQLVESGGGLVQAGGSLRLSCAASGRTFRRYAMGWYRQAPGKERELVAAISWGAGSTRYADSVKGRFTISRDNAKNTVYLQMNSLKPEDTAVYYCAAENTRAYGMYYWGQGTQVTVSS”, the “polyreactivity (PSR sort gate)” value is on record as “high polyreactivity”.

Regarding “QVQLVESGGGLVQAGGSLRLSCAASGRTFRRYAMGWYRQAPGKERELVAAISYSGTTTYYADSVKGRFTISRDNAKNTVYLQMNSLKPEDTAVYYCNKATAFGLDYWGQGTQVTVSS”, the “polyreactivity (PSR sort gate)” value is “high polyreactivity”.

Turning to “QVQLVESGGGLVQAGGSLRLSCAASGRTFRRYAMGWYRQAPGKERELVATIRSGDNTNYADSVKGRFTISRDNAKNTVYLQMNSLKPEDTAVYYCNRSPKSGQVTYLYSVNAHYDYWGQGTQVTVSS”, the “polyreactivity (PSR sort gate)” value was “low polyreactivity”.

As for “QVQLVESGGGLVQAGGSLRLSCAASGRTFRRYFMGWYRQAPGKERELVAAISGGGGSTYYAGSVKGRFTISRDNAKNTVYLQMNSLKPEDTAVYYCAARIGWYQYWGYPTSYGYWGQGTQVTVSS”, the “polyreactivity (PSR sort gate)” value is on record as “high polyreactivity”.

For “QVQLVESGGGLVQAGGSLRLSCAASGRTFRRYTMGWYRPAPGKERELVAAITTSGGSTYYADSVKGRFTLSRDNAKNTVYLQMNSLKPEDTAVYYCAATRRYSGDYWGQGTQVTVSS”, the “polyreactivity (PSR sort gate)” value was “high polyreactivity”.

As to “QVQLVESGGGLVQAGGSLRLSCAASGRTFRSNAMGWDRQAPGKEREFVAAISSGGSTKYADSVKGRFTISRDNAKNTVYLQMNSLKPEDTAVYYCAAVSHSRYWGQGTQVTVSS”, the “polyreactivity (PSR sort gate)” value is “high polyreactivity”.

With “QVQLVESGGGLVQAGGSLRLSCAASGRTFRSNAMGWYRQAPGKERELVAAISKRGASTYYADSVKGRFTISRDNAKNTVYLQMNSLKPEVTAVYYCNTGAAKHAYDYWGQGTQVTVSS”, the “polyreactivity (PSR sort gate)” value is recorded as “high polyreactivity”.

For the sequence “QVQLVESGGGLVQAGGSLRLSCAASGRTFRSNAMGWYRQAPGKERELVAAISNSGASTYYADSVKGRFTISRDNAKNTFYLQMNSLKPEDTAVYYCAADYYRPYRYDYWGQGTQVTVSS”, the “polyreactivity (PSR sort gate)” value is recorded as “high polyreactivity”.

With “QVQLVESGGGLVQAGGSLRLSCAASGRTFRSNAMGWYRQAPGKERELVAAITRSGGNTYYADSVKGRFTISRDTAKNTVYLQMNSLKPEDTAVYYCADRYSNPWARVSGYDYWGQGTQVTVSS”, the “polyreactivity (PSR sort gate)” value is “high polyreactivity”.

As for “QVQLVESGGGLVQAGGSLRLSCAASGRTFRSYAMGWYRQAPGKERELVATITRGSSTNYADSGKGRFTISRDNAKNTVYLQMNSLKPEDTAVYYCNADGKPPYISWLYDYWGQGTQVTVSS”, the “polyreactivity (PSR sort gate)” value is “low polyreactivity”.

As for “QVQLVESGGGLVQAGGSLRLSCAASGRTFRTNAMGWYRQAAGKERELVAAIRASTGSTYYADSVKGRFTMSRDNAKNTVYLQMNSLKPEDTAVYYCAARLRRGLTATWYYYWGQGTQVTVSS”, the “polyreactivity (PSR sort gate)” value is “high polyreactivity”.

For the sequence “QVQLVESGGGLVQAGGSLRLSCAASGRTFRTNAMGWYRQAPGKERELVAAITSDGTYYADSVKGRFTISRDNAKNTVYLQMNSLKPEDTAVYYCNVDDRETRDDYWGQGTQVTVSS”, the “polyreactivity (PSR sort gate)” value is “low polyreactivity”.

As for “QVQLVESGGGLVQAGGSLRLSCAASGRTFRTNAMGWYRQAPGKESELVADITYSGDSTYDADSVKGRFTISRDNAKNNVYLQMNSLKPEDTAVYYCNARLLSGPGYDYWGQGTQVTVSS”, the “polyreactivity (PSR sort gate)” value is “low polyreactivity”.

Take “QVQLVESGGGLVQAGGSLRLSCAASGRTFRTNTMGWYRQAPGKERELVAAIRYIGGSTYYADSVKGRFTISRDNAKNTVYLQMNSLKPEDTAVYYCAAYRYGSRYGYEYWGQGTQVTVSS”: the “polyreactivity (PSR sort gate)” value is given as “high polyreactivity”.

For “QVQLVESGGGLVQAGGSLRLSCAASGRTFRTYAMGWYRQAPGKERELVAITTSGGSTYYADSVKGRFTISRDNAKNTVYLQMNSLKPEDTAVYYGAAQWRSYYDQYGYDYWGQGTQVTVSS”, the “polyreactivity (PSR sort gate)” value was “low polyreactivity”.

With “QVQLVESGGGLVQAGGSLRLSCAASGRTFRTYAMGWYRQAPGKERELVASISVGGGSTYYADSVKGRFTISRDNAKNTVYLQMNSLKPEDTAVYYCAVRSYSPRSRGMGYWGQGTQVTVSS”, the “polyreactivity (PSR sort gate)” value was “high polyreactivity”.

As to “QVQLVESGGGLVQAGGSLRLSCAASGRTFRTYTMGWYRQAPGKEREFVAAIDRTGGSTYYADSVKGRFTISRDNAKNTVYLQMNSLKPEDTAVYYCAARFGSGFNYWGQGTQVTVSS”, the “polyreactivity (PSR sort gate)” value is on record as “high polyreactivity”.

For “QVQLVESGGGLVQAGGSLRLSCAASGRTFRTYVMGWYRQAPGKERELVAAITWSGGRTYYADSVKGRFTISRDNAKNTVYLQMNSLKPEDTAVYYCATQPTYYLRSYGLDYWGQGTQVTVSS”, the “polyreactivity (PSR sort gate)” value was “high polyreactivity”.

With “QVQLVESGGGLVQAGGSLRLSCAASGRTFRVYAMGWYRQAPGKERELVAAISGSGGSTYYADSLKGRFTISRDNAKNTVYLQMNSLKPDDTAVYYCAARYFGPGWRDRDYNYWAQGTQVTVSS”, the “polyreactivity (PSR sort gate)” value is given as “high polyreactivity”.

Take “QVQLVESGGGLVQAGGSLRLSCAASGRTFRVYAMGWYRQAPGKERELVATITSSGGSTYYADSVKGRLTISRDNAMNTVDLQMNSLKPEDTAGYYCNVSVYYKYVSSYYYWGQGTQVTVSS”: the “polyreactivity (PSR sort gate)” value is reported as “low polyreactivity”.

With “QVQLVESGGGLVQAGGSLRLSCAASGRTFRVYAMGWYRQAPGKERELVATLTGRGGSTDYADSVKGRFTISRDNAKNTVYLQMNILKPEDTAVYYCAAVGVSRRADPAWAGDYWGQGTQVTVSS”, the “polyreactivity (PSR sort gate)” value is on record as “high polyreactivity”.

Regarding “QVQLVESGGGLVQAGGSLRLSCAASGRTFRWNAMGWYRPAPGKERELVAAISSGGSTYYADSVKGRFTISRDNAKNTVYLQMNSLKPEDTAVYYCNKYYVRAYDTQEYDYWGQGTQVTVSS”, the “polyreactivity (PSR sort gate)” value is on record as “high polyreactivity”.

Take “QVQLVESGGGLVQAGGSLRLSCAASGRTFRWNAMGWYRQAPGKERELVATIRSGDSTNYADSVKGRFTISRDNAKNTVYLQMNSLKPEDTAVYYCAAEGVSKVYWGYFGSYDYWGQGTQVTVSS”: the “polyreactivity (PSR sort gate)” value is reported as “low polyreactivity”.

In the case of “QVQLVESGGGLVQAGGSLRLSCAASGRTFRWNGMGWYRQAPGKERELVAVINRGGSTTYADSVKGRFTISRDNAKNTVYLQMNSLKPEDTAVYYCAKDHYYAGTWRYGYWGQGTQVTVSS”, the “polyreactivity (PSR sort gate)” value is recorded as “high polyreactivity”.

For the sequence “QVQLVESGGGLVQAGGSLRLSCAASGRTFRWYAMGWYRQAPGKERELVAAINPGGSTNYADSVKGRFTISRDNAKNSVYLQMNSLKPEDTAVYYCNAAGYDALTHNYYWGQGTQVTVSS”, the “polyreactivity (PSR sort gate)” value is given as “low polyreactivity”.

“QVQLVESGGGLVQAGGSLRLSCAASGRTFRWYAMGWYRQAPGKERELVAAITSDGSTYYADSVKGRFTISRDNAKNTVYLQMNSLKPEDTAVYYCNAAGRYAFPFGYNYWGQGTQVTVSS”: the “polyreactivity (PSR sort gate)” value is listed as “high polyreactivity”.

With “QVQLVESGGGLVQAGGSLRLSCAASGRTFRWYAMGWYRQAPGKERELVAAITSSSSTNYADSVKGRFTISRDNAKNTVYLQMNSLKPEDTAVYYCAKGWNWYDLGESGYWGQGTQVTVSS”, the “polyreactivity (PSR sort gate)” value was “low polyreactivity”.

“QVQLVESGGGLVQAGGSLRLSCAASGRTFRWYAMGWYRQAPGKERELVADISSVGSTDYADSVKGRFTISRDNAKNTVYLQMNSLKPEDTAVYDCAADFSPRRYHNRSFGYWGHGTQVTVSS”: the “polyreactivity (PSR sort gate)” value is “low polyreactivity”.

For “QVQLVESGGGLVQAGGSLRLSCAASGRTFRWYAMGWYRQAPGKETELVAAINPGGSTNYADSVKGRFTISRDNAKNTVYLQMNSLKPEDTAVYYCNAAGYDALTHNYYWGQCTQVTVSS”, the “polyreactivity (PSR sort gate)” value was “low polyreactivity”.

Regarding “QVQLVESGGGLVQAGGSLRLSCAASGRTFRWYTMGWYRQAPGKERELVAAITSRGGSTYADSVKGRFTISRDNAKNTVYLQMNSMKPEDTAVYYCNAARTYQYDYWGQGTQVTVSS”, the “polyreactivity (PSR sort gate)” value is reported as “high polyreactivity”.

In the case of “QVQLVESGGGLVQAGGSLRLSCAASGRTFRYNAMGWYRQAPGKERDLVAAISYSGGRTNYADSVKGRFTISRDNAKNTVYLQMNSLKPEDTAVYDCATGYAVYLSRRDYWGQGTQVTVSS”, the “polyreactivity (PSR sort gate)” value is “high polyreactivity”.

On to “QVQLVESGGGLVQAGGSLRLSCAASGRTFRYNAMGWYRQAPGKERELVAAISTRGGSTYYADSVKGRFTISRDNAKNTVYLQMNSLKPEDTAVYYCAVTPRIPGHFEDYYWGQGTQVTVSS”, for which the “polyreactivity (PSR sort gate)” value is recorded as “low polyreactivity”.

In the case of “QVQLVESGGGLVQAGGSLRLSCAASGRTFRYNAMGWYRQAPGKERELVAGITYNGGSTSYADSVKGRFTISRDNAKNTVYLQMNSLKPEDTAVYYCNVVYNYYGRFGSWGQGTQVTVSS”, the “polyreactivity (PSR sort gate)” value is on record as “high polyreactivity”.

For the sequence “QVQLVESGGGLVQAGGSLRLSCAASGRTFRYNDMGWYRQAPGKERELVADITFSGGNTYYADSVKGRFTISRVNAKNTVYLQMNSLKPEDTAVYYCAKRRYYTGGMDYWVQGTQVTVSS”, the “polyreactivity (PSR sort gate)” value is “low polyreactivity”.

Turning to “QVQLVESGGGLVQAGGSLRLSCAASGRTFRYNTMGWYRPAPGKERELVAAISSGGGRTYYADSVKGRFTISRDNAKNTVYLQMNSLIPEDTAVYYCAADRYFRSRRSYEYWGQGTQVTVSS”, the “polyreactivity (PSR sort gate)” value is given as “low polyreactivity”.

Regarding “QVQLVESGGGLVQAGGSLRLSCAASGRTFRYNTMGWYRQAPGKERELVAAITRSGGTTYYADSVKGRFTISRDNAKNTVYLQMNSLKPEDTSVYYCAAEGQAVRKSARDVFFEEFDYWGHGTQVTVSS”, the “polyreactivity (PSR sort gate)” value is reported as “low polyreactivity”.

“QVQLVESGGGLVQAGGSLRLSCAASGRTFRYYAMGWSRQAPGKERELVASITSGGRTYYADSVKGRFTISRDNAKNTVYLQMNSLKPEDTAVYYCAADTPVTASSPPSDYWGQGTQVTVSS”: the “polyreactivity (PSR sort gate)” value is given as “high polyreactivity”.

With “QVQLVESGGGLVQAGGSLRLSCAASGRTFRYYAMGWYRPAPGKERELVATITGSGGSTYYADSVKGRFTISRDNAKNTVYLQMNSLKPEDTAVYYCNARKVRYPYRWYDYWGQGTQVTVSS”, the “polyreactivity (PSR sort gate)” value was “high polyreactivity”.

Source of the values: the nanobody polyreactivity screen of Harvey et al. (2022).
